Data on two substances can be found in article PMC4956256.

The target in assay [1] is TV1.C gp120 monomer (HIV-1 subtype C, strain TV1.C). The assay can be described thus: SEC + other: SDS-PAGE; purified TV1.C gp120; SDS-PAGE under reduced and non-reduced conditions; SEC-HPLC under non-reduced and reduced (otherwise native) conditions. For orientation: SEC sorts molecules by how far they enter the pores of the column.
The target in assay [2] is soluble CD4 receptor ligand, CD4-Fc (sCD4) (UniProt P01730). Put plainly: SPR; BIAcore 3000; about 200 RU of sCD4 immobilised directly on a CM5 chip by amine coupling; varying concentrations of gp120 injected at 100 ul/min; 25°C; PBS + 0.1% BSA; 1:1 Langmuir fit. On the technique in general: In SPR one partner is held on a chip, and binding of the other changes the refractive index at the surface.

For orientation: stoichiometry N means a count of units in the complex or per binding partner. Broadly, the Kd is the concentration at which binding is half-saturated. As to TV1.C gp120 monomer (natural protein), the stoichiometry N in assay [1] is 2. The Kd in assay [2] stood at 148 nM.
With 1086.C gp120 monomer (natural protein), the Kd in assay [2] is 26.6 nM.
